In patent publication US20240269276A1:
Read-outs that look alike come from different tables or passages of the source.

Experiments:
[1] = target: cynomolgus monkey PD-L1 on CHO-K1 cells overexpressing cynomolgus monkey PD-L1 (cynomolgus monkey) (UniProt G7PSE7); assay: flow cytometry on CHO-K1 cells overexpressing cynomolgus monkey PD-L1 (CHO-K1/cynoPD-L1); isotype control, EC50 given as N.A.
[2] = target: cynomolgus monkey PD-L1 on CHO-K1 cells overexpressing cynomolgus monkey PD-L1 (cynomolgus monkey) (UniProt G7PSE7); assay: as above; remark: listed apart in the source
[3] = target: human PD-L1 on CHO-K1 cells overexpressing human PD-L1 (human) (UniProt Q9NZQ7); assay: flow cytometry on CHO-K1 cells overexpressing human PD-L1 (CHO-K1/hPD-L1); isotype control, EC50 given as N.A.
human PD-L1 on CHO-K1 cells overexpressing human PD-L1 (human), sequence (Q9NZQ7 19-290): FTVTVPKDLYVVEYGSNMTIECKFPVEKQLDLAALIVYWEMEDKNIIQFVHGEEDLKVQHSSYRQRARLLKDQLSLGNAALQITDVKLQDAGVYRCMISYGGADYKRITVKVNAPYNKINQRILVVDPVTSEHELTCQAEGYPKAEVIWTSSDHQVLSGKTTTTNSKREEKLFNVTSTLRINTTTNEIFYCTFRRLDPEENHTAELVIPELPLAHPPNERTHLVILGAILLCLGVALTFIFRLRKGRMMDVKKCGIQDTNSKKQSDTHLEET

[4] = target: human PD-L1 on CHO-K1 cells overexpressing human PD-L1 (human) (UniProt Q9NZQ7); assay: flow cytometry on CHO-K1 cells overexpressing human PD-L1 (CHO-K1/hPD-L1); isotype control, fit value printed for a curve that stays at the baseline [continued) D]
[5] = target: cynomolgus monkey PD-L1 on CHO-K1 cells overexpressing cynomolgus monkey PD-L1 (cynomolgus monkey) (UniProt G7PSE7); assay: flow cytometry on CHO-K1 cells overexpressing cynomolgus monkey PD-L1 (CHO-K1/cynoPD-L1); isotype control, EC50 given as N.A.; remark: listed apart in the source
[6] = target: human PD-L1 on CHO-K1 cells overexpressing human PD-L1 (human) (UniProt Q9NZQ7); assay: flow cytometry on CHO-K1 cells overexpressing human PD-L1 (CHO-K1/hPD-L1); isotype control [continued) D]

cynomolgus monkey PD-L1 on CHO-K1 cells overexpressing cynomolgus monkey PD-L1 (cynomolgus monkey), sequence (G7PSE7 entry or part of it limits assumed): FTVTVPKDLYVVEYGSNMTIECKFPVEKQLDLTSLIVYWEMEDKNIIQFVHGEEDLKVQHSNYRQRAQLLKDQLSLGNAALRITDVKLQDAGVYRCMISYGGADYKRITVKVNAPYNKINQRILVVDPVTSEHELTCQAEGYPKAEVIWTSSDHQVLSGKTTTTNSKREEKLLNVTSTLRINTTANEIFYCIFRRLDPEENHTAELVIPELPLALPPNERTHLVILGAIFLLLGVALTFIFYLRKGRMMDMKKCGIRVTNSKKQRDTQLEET

hIgG1 (antibody)
Maximum MFI [1]: 112 MFI
Maximum MFI [2]: 123 MFI
Maximum MFI [3]: 86 MFI
EC50 [4]: 75.9 nM
Maximum MFI [5]: 125 MFI
Maximum MFI [6]: 595 MFI
